Results on 21 sequences are retold here after the DeepSol protein solubility set.

A short description of this data set: soluble on expression in E. coli; label from the status in PepcDB or PDB records.
As to “MGSDKIHHHHHHMAWTSAQGATAAMTVVDGVTGLPIAGATVVSAGAERVTANDGTFMMPMDGPDGGIAMTVRAPGYARLETVANGTTPRAIALAPLLAEEAARMGFDEVQFDYLRFPDAPGLRFSETNTSARRVAAITGFLSAARDRLRHYNIYLSADIFGYVCWNLDDTAIGQQLETLVVLSTTFHRCCIRPVSPSGWRRSGATSHPSRRGLP”, the “soluble on expression in E. coli” value is “not soluble”.
Turning to “MKKINAIILLSSLTSASVFAGAYVENREAYNLASDQGEVMLRVGYNFDMGAGIMLTNTYNFQREDELKHGYNEIEGWYPLFKPTDKLTIQPGGLINDKSIGSGGAVYLDVNYKFVPWFNLTVRNRYNHNNYSSTDLSGELDNNDTYEIGTYWNFKITDKFSYTFEPHYFMRVNDFNSSNGKDHHWEITNTFRYRINEHWLPYFELRWLDRNVEPYHREQNQIRIGTKYFF”, the “soluble on expression in E. coli” value is on record as “soluble”.
For the sequence “MSYPIKSTLIILRGNSASGKTTIAKQLQEHFGQGTLLVSQDVVRRDMLRVHDTIGNLSHDLLFEITKYGKGKCEFVILEGILNSHRYGDMLKELIHLFEGNAYTYYFDLSLKETIRRHNTREKRHEFGEDSLQKWYNPHDTIEVTRETIFTDNLTQKDIFDAILNDVMVRKLEHHHHHH”, the “soluble on expression in E. coli” value is on record as “soluble”.
For “MTPSRPSPDFPDGGFVQVRGARQHNLKDISVKVPRDALVVFTGVSGSGKSSLAFGTLYAEAQRRYLESVSPYARRLFNQAGVPDVDAIDGLPPAVALQQARGTPTARSSVGSVTTLSNLLRMLYSRAGDYPPGQGIVYAEGFSPNTPEGACPECHGLGRVYTVTEDSMVPDPSLTIRERAVAAWPQAWGGQNQRDILVTLGIDVDVPWRELPEETRHWILFTDEQPVVPVYPGLTPAETQRALKKKMEPSYMGTFSSARRHVLHTFANTESASMKKRVQGYMISEECPLCHGKRLRQEALNVTFAGLDITELSRLPLARVSELLRPYAEEREPGHAERVKNRPEQAIALQRMAADLVKRLDVLLHLGLGYLGLDRSTPTLSPGELQRLRLATQLYSNLFGVVYVLDEPSAGLHPADTEALLSALENLKRGGNSLFVVEHDLDVIRRADWLVDVGPEAGEKGGEILYSGPPEGLKHVPESQTGQYLFADRHTEPHTPREPAGWLELNGVTRNNLDNLDVRFPLGVMTSVTGVSGSGKSTLVSQALVDALAAHFGQPVNPDPEDDEDPADHTAGSARLGGDLAQITRLVRVDQKPIGRTPRSNMATYTGLFDQVRKLFAATPLAKKRGYNAGRFSFNVKGGRCEHCQGEGWVMVELLFLPSVYAPCPVCHGTRYNAETLEVEYRGKNIADVLALTVDEAHDFFADESAIFRALDTLREVGLGYLRLGQPATELSGGEAQRIKLATELRRSGRGGTVYVLDEPTTGLHPADVERLQRQLVKLVDAGNTVIAVEHKMQVVAASDWVLDIGPGAGEDGGRLVAQGTPAEVAQAAGSVTAPYLRAALR” the value was “soluble”; for “MSLTIITMIRFYGFSVMLENEQLKIEYGLFNKKKVTVPTKRLQAVVERQSYIRRLFGYTAIHFIITSDFENKKIEDDDNDSGSVPILPFIKRDKAYQIIQNLVPDLSYQQVNEGMPLSGFHEGHHHHHH”, “not soluble”.
With “QSRGEKRTAHNAIEKRYRSSINDKIIELKDLVVGTEAKLNKSAVLRKAIDYIRFLQHSNQKLKQENLSLRTAVHKSKSLKDL”, the “soluble on expression in E. coli” value is reported as “soluble”.
Take “MSPKARWQFWIDRGGTFTDIVARSPDGKLITHKLLSEDPAHYEDAAMHGIRQILGLSENEPFPSEDVEAIKMGTTVGTNALLERKGERIVLVITKGFGDALRIGYQNRPDIFSQKIELPDQLYERVIEVSGRYSADGEEIVPLELESAKKELEEAYKAGIRSAAVILMHSYRYPEHELMLGRLATEIG”: the “soluble on expression in E. coli” value is recorded as “not soluble”.
For “MKVNVSCSSVQTTIDILEENQGEDESILTLGQLRDRIATDNDVDVETMKLLHRGKFLQGADDVSLSTLNFKENDKIIVMGGKNALVDDAGFKMLMQYEKHNLSNLQKAYDLNLRDVADLERGFLEKPKQVEMGKKLEKKVKYFNEEAERHLETLDGMNIITETTPENQAKRNREKRKTLVNGIQTLLNQNDALLRRLQEYQSVLNGDIPE”, the “soluble on expression in E. coli” value is reported as “soluble”.
The result for “LKVLTNKASVMLFMKGNKQEAKCGFSKQILEILNSTGVEYETFDILEDEEVRQGLKTFSNWPTYPQLYVRGDLVGGLDIVKELKDNGELLPILKGE” reads “soluble”; that for “MSRTILQPGQIEAAANIPPHLHQPSRDLFARRGERLLQLAEGHPMGDYLRLVAGLCRLQQALLDNPPALAPLDPERLRKSREHGMPPLAYDLLVREGAWLPWLDALLAGYPAPANAAVGAALEQLREAEEGQRKAWAIALLSGQFDLLPAALVPFLGAALQVAWSHWLLGLEEGAVVETESRTLCPACGSPPMAGMIRQGGKETGLRYLSCSLCACEWHYVRIKCSHCEESKHLAYLSLEHDGQPAEKAVLRAETCPSCQGYLKQFYLEFDRHADALADDLASLALDMRLAEDGYLRRSPNLLLAPGGE”, “soluble”; that for “MSLGMPSKQREYSNRFFDSTVWNDFAFRDDDVVIASYAKAGTTWVQQIVAQLIFGGAEEIEVSRLSPWFDSVYPDKATKQRLLAEQRHRRFVKTHLPADALVLSERARYLYVGRDARDIVWSLYDHQRAVSADAQARLDAEPSSNGKLRVMPPPTCSVEDYFQTWMRADGAPLWPFWEGVRSWWALRDYDNVLLVHYAALLHDLPAQVRRIAAFLDIPLDAPCCERVLAHCSLDYMRAHAARYVPQGAGFWRDGGRAFFNQGLNGRWRDRLAPAVDAAYRQHVVAELGAECARWLATGDVASEGHHHHHH”, “soluble”.
In the case of “PETKTGKKILLAAPRGYCAGVDRAVETVERALEEYGAPIYVRKEIVHNRYVVDTLAEKGAIFVNEASEAPEGANMVFSAHGVSPMVHEEAAAKNIKAIDAACPLVTKVHKEVQRFDKQGFHILFIGHEGHEEVEGTMGHSVEKTHLVDGVAGIATLPEFLNDEPNLIWLSQTTLSVDETMEIVRELKVKFPQLQDPPSDDICYATQNRQVAVKAIAERCELMIVVGSRNSSNSVRLVEVAKQNGADNAYLVDYAREIDPAWFEGVETIGISSGASVPEILVQGVIERLAEFGYD”, the “soluble on expression in E. coli” value was “not soluble”.
On to “THSEEEIKIIASESQKGGVLDEFETEIIRNAVDFSDTVAKEIMTPRKDMICLNKQKSYEENMQIICEHKHTRFPYIDGSKDTILGMIHIRDIIQNELNHKSQNLDTFVKPLILVPENISISKVLVMMNKERSHTALVVDEYGGTAGILTMEDIMEEIIGEIKSEHEEDSYKKLA”, for which the “soluble on expression in E. coli” value is reported as “soluble”.
With “MAHHHHHHMMRRMWVPTFSAQQQHLHHAMGLKMLTYASTPSGSGVTSAASNEEMNLHDAAAIAPGPYRRVGNIFIVHCDDHPFKHSWEVNRMLRELRLEFKGQTTIVPDIPQVRKRIWRVRHIVKVDVLDLDEAKALIGVPEHISFTDLASQLPPSFGRVKAVPSPVIRSKMNFMKLRRMRLRDVLHRDALELRLLELKRSAMKNAEQQKHAQK”, the “soluble on expression in E. coli” value is “not soluble”.
For “MGSDKIHHHHHHMATTLFIQRGDIAAWLADTAATHTVYAPLRDKTGVRFHRLCAQDAAAQTQALELDRQAQTPPKNVLLPACETLLEFSYAKQEDGSTSLDVQPVMPQGAVLLFGPRPCDARAFTVFDRVYDAGRGKDPYYTARRAATVVASVVCTRPEQSCFCTAVGGAPDDTEGSDILFTPVQDGFIVRPLTQAAEAVLRHPLFTEAAHREEEAADVCAAARAAVPCAPADFTAAPEPVAALFDDMEFWQSVTAKCLSCGACTYLCPTCYCFNITDESNGLEGRRLRTWDNCMSFQFTLEGSGHNPRPTKAHRYRNRIGHKFSYYPRIHDGALSCVGCGRCISSCPVTMDIRRIVHSAMQRAQCATPEQAHE” the value was “not soluble”.
With “MGSDKIHHHHHHMNSPYTRSPRTIKHAFVTGATGLLGNNLVRALLKQGIKVTALVRSMEKARLQFGDLPIQYVKGDILNPEAFRSAFTDCDTLFHTAAFFRDSHKGGKHWQELYDTNVTGTTHLLKAAYEEGIRQMIHTSSIAVLKGERHQLIDETMSRDPSTKLDYYRSKILSENAVSNFLKEYPDLFLCYVLPGSMYGPGDMGPTATGQLILDYMQQKLPGIITKASYSVVDTRDVADIHILALKYGRRNERYLAAGRHMTMESIVKTLEEITGIPAPKRHIPIFLVQALAQWNELYHKITGKPVLVSKEIADITAEEYLRTYFSHKKTEQELGGQFRPFEETLLDTVRWYRNHGYLN”, the “soluble on expression in E. coli” value is recorded as “not soluble”.
The result for “MGSDKIHHHHHHMERHNAIPIYDAELPLTSGVIPLVAGLTMPGCLRDASPDAWGRRVILNKRFGKTALQIDPGSIDELSYLIESGSDRIGALDFQRSPTEYIPRLASGAPLEELIKAAELVEKGVPLTPELAQALQHGTSIGGARPKALVQSDNHKFIAKFSTSTDLYSVVKAEFIAMKLALMAGLHVAPVNLLQVAGKDVLMVERFDRVAAPAGWQRKGIVSALTMLQLDEMMARYASYHDLANLVRQRFMRAPSTLRELFSRLAFNILIGNTDDHARNHAAFWDGRMLQLTPAYDICPQSRTGRTASQAMQISDGQNSSQITTCLKAAPHFLLNEAEAGLIIEGQIRCIEENWPTICEEADLSEIDRNLMWRNQVLNPFAFEGLEGSSLERLAKKYR” reads “not soluble”.
The result for “MAHHHHHHMSSSAVPAYEGKQKVYALLNGTFHAAIVLEVAEDATEGGFLYYVRYVEQDSRLDQWLQASDIKERHQGRTHHGSSCTHQQYTPSGIKTRRQSHVTEQQNAETAVLTGEGVGMPTEVSANAKGGGAAPHLVKVSKTRARRDSAFFSRTKNIYSICMGPHEVETWYFSPYHLARPEVQQRLQAASQCVTGSTELQLVQSTTSPGGTSGVSTGIADVGGGAGGTGNVSVGAGGSGRGSGAGMRQWPIATRSFSLHICPYCLRPFLDNAAVVRHLQQDCLRHPPGNEIYRDPVRRLVVLELDGSLEPTFCEHLALLSKLFLEHKALDHDMTPFLFYVLCSVETHGLQVLGYFSKEKQTPEPYNLSCILVLPQYQSRGIGRFLIELSYELSRREGKVGTPEKPLSDLGEKLYLSYWADSVTMAIARAMEEGHCVSVDYLVQATAMIQADVIRALQHQKLLNGHQLTISEDIVERCYTKRLTKERDITSYTFYTHLLSWAPGFYEEFRGVPPAPTFVPWRDPSAPHSRTGG” reads “not soluble”.
The result for “MTVSTPPSIATGNAPSPDYRVEILSESLPFIQKFRGKTIVVKYGGAAMTSPELKSSVVSDLVLLACVGLRPILVHGGGPDINRYLKQLNIPAEFRDGLRVTDATTMEIVSMVLVGKVNKNLVSLINAAGATAVGLSGHDGRLLTARPVPNSAQLGFVGEVARVDPSVLRPLVDYGYIPVIASVAADDSGQAYNINADTVAGELAAALGAEKLILLTDVAGILENKEDPSSLIKEIDIKGVKKMIEDGKVAGGMIPKVKCCIRSLAQGVKTASIIDGRRQHSLLHEIMSDEGAGTMITG” reads “soluble”.
Take “MGSDKIHHHHHHMSNVISVENLGKKYLISHQGREPYTALRDVLTDGARAFYRRLFSPGTSQADAQAEEFWALKDVSFEVKQGDRIGIIGRNGAGKSTLLKILSRITEPTEGRVRIRGRVASLLEVGTGFHPELTGRENIFLNGAILGMNRAEIARKFDEIVAFAEIEKFLDTPVKRYSSGMYVRLAFAVAAHLEPEILIVDEVLAVGDAQFQNKCLGKMEDVSTKEGRTVLFVSHNMGAIDRLCTRAVLLERGRVRLADFTKPVIQMYLDKAKNAISAWSCSTSIPDFDGIFFESISIVNKDRKIAEVLPSNEPFSITLVVNATASLKGVQIAIRITNEQGIPILTTTNCDKAGKLQEISRGRYRYTVSLPASFLPPGYYTLIVASFVPGEKLFDGVEDKLGFCIDDMGSLATLMKDGRLGVVTPLMPWDEVRL”: the “soluble on expression in E. coli” value is listed as “not soluble”.
On to “MKWKVLQLKTQEIKVNNLAKSSLHQPGSLVLRNRIRNNQTISNHQKVYITNLHKDKLKLNNLLRLMKSTNRHMPFRNLVLATGQELALLHNKRKRRKTLPLALFYSHLILL”, for which the “soluble on expression in E. coli” value was “not soluble”.
